Data taken from patent publication US11504441B2, “Radiolabeled compounds targeting the prostate-specific membrane antigen” (PROVINCIAL HEALTH SERVICES AUTHORITY, priority 2019, dated 2022).

Assay: in vivo
Parameters: species or system mice
Conditions: male, NODSCID 1L2RγKO, mouse, iv, total radioactivity

## O=C(O)CCC[C@H](NC(=O)N[C@@H](CCCCNC(=O)[C@H](Cc1c2ccccc2cc2ccccc12)NC(=O)[C@H]1CC[C@H](CNC(=O)[C@H](CCCCNC(=O)CN2CCN(CC(=O)O)CCN(CC(=O)O)CCN(CC(=O)O)CC2)NC(=O)CNC(=O)CCCc2ccc(Cl)cc2)CC1)C(=O)O)C(=O)O [177Lu-HTK03153, metal not drawn]
Adrenal glands uptake
  tissue uptake at 1 h: 4.52 ± 0.46 %ID/g
  tissue uptake at 4 h: 3.5 ± 0.46 %ID/g
  tissue uptake at 24 h: 2.35 ± 0.47 %ID/g
  tissue uptake at 72 h: 1.2 ± 0.26 %ID/g
  tissue uptake at 120 h: 0.82 ± 0.19 %ID/g
Blood uptake
  tissue uptake at 1 h: 24.7 ± 2.11 %ID/g
  tissue uptake at 4 h: 18.8 ± 1.16 %ID/g
  tissue uptake at 24 h: 7.44 ± 1.12 %ID/g
  tissue uptake at 72 h: 1.46 ± 0.58 %ID/g
  tissue uptake at 120 h: 0.37 ± 0.13 %ID/g
Bone uptake
  tissue uptake at 1 h: 1.26 ± 0.15 %ID/g
  tissue uptake at 4 h: 0.83 ± 0.15 %ID/g
  tissue uptake at 24 h: 0.4 ± 0.08 %ID/g
  tissue uptake at 72 h: 0.16 ± 0.06 %ID/g
  tissue uptake at 120 h: 0.06 ± 0.04 %ID/g
Brain uptake
  tissue uptake at 1 h: 0.35 ± 0.03 %ID/g
  tissue uptake at 4 h: 0.27 ± 0.03 %ID/g
  tissue uptake at 24 h: 0.13 ± 0.02 %ID/g
  tissue uptake at 72 h: 0.05 ± 0.02 %ID/g
  tissue uptake at 120 h: 0.03 %ID/g
Fat uptake
  tissue uptake at 1 h: 1.61 ± 0.36 %ID/g
  tissue uptake at 4 h: 1.46 ± 0.36 %ID/g
  tissue uptake at 24 h: 0.66 ± 0.16 %ID/g
  tissue uptake at 72 h: 0.3 ± 0.13 %ID/g
  tissue uptake at 120 h: 0.19 ± 0.09 %ID/g
Heart uptake
  tissue uptake at 1 h: 5.95 ± 0.44 %ID/g
  tissue uptake at 4 h: 4.26 ± 0.44 %ID/g
  tissue uptake at 24 h: 1.9 ± 0.25 %ID/g
  tissue uptake at 72 h: 0.68 ± 0.25 %ID/g
  tissue uptake at 120 h: 0.32 ± 0.07 %ID/g
Intestine uptake
  tissue uptake at 1 h: 1.56 ± 0.16 %ID/g
  tissue uptake at 4 h: 1.22 ± 0.16 %ID/g
  tissue uptake at 24 h: 0.78 ± 0.1 %ID/g
  tissue uptake at 72 h: 0.3 ± 0.1 %ID/g
  tissue uptake at 120 h: 0.18 ± 0.08 %ID/g
Kidneys uptake
  tissue uptake at 1 h: 10 ± 1.09 %ID/g
  tissue uptake at 4 h: 9.1 ± 1.09 %ID/g
  tissue uptake at 24 h: 8.81 ± 1.06 %ID/g
  tissue uptake at 72 h: 4.95 ± 2.39 %ID/g
  tissue uptake at 120 h: 2.81 ± 0.35 %ID/g
Lacrimal uptake
  tissue uptake at 1 h: 0.35 ± 0.07 %ID/g
  tissue uptake at 4 h: 0.35 ± 0.14 %ID/g
  tissue uptake at 24 h: 0.18 ± 0.06 %ID/g
  tissue uptake at 72 h: 0.05 ± 0.05 %ID/g
  tissue uptake at 120 h: 0.02 ± 0.02 %ID/g
Liver uptake
  tissue uptake at 1 h: 3.61 ± 0.65 %ID/g
  tissue uptake at 4 h: 3.19 ± 0.65 %ID/g
  tissue uptake at 24 h: 1.52 ± 0.25 %ID/g
  tissue uptake at 72 h: 0.73 ± 0.21 %ID/g
  tissue uptake at 120 h: 0.4 ± 0.03 %ID/g
Lungs uptake
  tissue uptake at 1 h: 10.8 ± 1.38 %ID/g
  tissue uptake at 4 h: 9.4 ± 1.38 %ID/g
  tissue uptake at 24 h: 3.93 ± 0.41 %ID/g
  tissue uptake at 72 h: 1.87 ± 1.31 %ID/g
  tissue uptake at 120 h: 0.56 ± 0.12 %ID/g
Muscle uptake
  tissue uptake at 1 h: 1.54 ± 0.16 %ID/g
  tissue uptake at 4 h: 1.19 ± 0.16 %ID/g
  tissue uptake at 24 h: 0.56 ± 0.1 %ID/g
  tissue uptake at 72 h: 0.18 ± 0.07 %ID/g
  tissue uptake at 120 h: 0.07 ± 0.01 %ID/g
Pancreas uptake
  tissue uptake at 1 h: 2.17 ± 0.21 %ID/g
  tissue uptake at 4 h: 1.6 ± 0.21 %ID/g
  tissue uptake at 24 h: 0.77 ± 0.09 %ID/g
  tissue uptake at 72 h: 0.29 ± 0.13 %ID/g
  tissue uptake at 120 h: 0.15 ± 0.04 %ID/g
Salivary uptake
  tissue uptake at 1 h: 3.56 ± 0.39 %ID/g
  tissue uptake at 4 h: 2.86 ± 0.39 %ID/g
  tissue uptake at 24 h: 1.25 ± 0.14 %ID/g
  tissue uptake at 72 h: 0.68 ± 0.22 %ID/g
  tissue uptake at 120 h: 0.37 ± 0.04 %ID/g
Seminal uptake
  tissue uptake at 1 h: 1.3 ± 0.32 %ID/g
  tissue uptake at 4 h: 1.2 ± 0.32 %ID/g
  tissue uptake at 24 h: 0.7 ± 0.5 %ID/g
  tissue uptake at 72 h: 0.23 ± 0.11 %ID/g
  tissue uptake at 120 h: 0.15 ± 0.05 %ID/g
Spleen uptake
  tissue uptake at 1 h: 2.54 ± 0.27 %ID/g
  tissue uptake at 4 h: 1.54 ± 0.27 %ID/g
  tissue uptake at 24 h: 1.21 ± 0.24 %ID/g
  tissue uptake at 72 h: 1.03 ± 0.46 %ID/g
  tissue uptake at 120 h: 1.53 ± 0.71 %ID/g
Stomach uptake
  tissue uptake at 1 h: 0.89 ± 0.15 %ID/g
  tissue uptake at 4 h: 0.71 ± 0.15 %ID/g
  tissue uptake at 24 h: 0.68 ± 0.15 %ID/g
  tissue uptake at 72 h: 0.31 ± 0.17 %ID/g
  tissue uptake at 120 h: 0.15 ± 0.1 %ID/g
Tail uptake
  tissue uptake at 1 h: 5.38 ± 5.96 %ID/g
  tissue uptake at 4 h: 6.89 ± 5.96 %ID/g
  tissue uptake at 24 h: 1.55 ± 0.34 %ID/g
  tissue uptake at 72 h: 0.44 ± 0.15 %ID/g
  tissue uptake at 120 h: 0.24 ± 0.04 %ID/g
Testes uptake
  tissue uptake at 1 h: 3.24 ± 0.4 %ID/g
  tissue uptake at 4 h: 3.45 ± 0.4 %ID/g
  tissue uptake at 24 h: 2.15 ± 0.33 %ID/g
  tissue uptake at 72 h: 1.38 ± 0.48 %ID/g
  tissue uptake at 120 h: 0.98 ± 0.22 %ID/g
Thyroid uptake
  tissue uptake at 1 h: 4.8 ± 0.32 %ID/g
  tissue uptake at 4 h: 3.57 ± 0.32 %ID/g
  tissue uptake at 24 h: 1.95 ± 0.32 %ID/g
  tissue uptake at 72 h: 0.85 ± 0.28 %ID/g
  tissue uptake at 120 h: 0.52 ± 0.12 %ID/g
Tumor uptake
  tissue uptake at 1 h: 14.2 ± 7.67 %ID/g
  tissue uptake at 4 h: 27.9 ± 7.67 %ID/g
  tissue uptake at 24 h: 57.2 ± 10.1 %ID/g
  tissue uptake at 72 h: 69.1 ± 13.4 %ID/g
  tissue uptake at 120 h: 86.4 ± 8.05 %ID/g
